This passage reports cell death and PD-L1 expression results from patent US11147875B2, “Compositions, combinations and related methods for photoimmunotherapy” (priority 2015, dated 2021).

Assay [1] concerns BxPC3 cells. Briefly: Effect of interferon gamma on cell death. The format is cell-based. The conditions noted are these: 0 ng/mL to 3.75 μg/mL, 18 hours. As to the method: BxPC3 cells (#CRL-1687, ATCC, Manassas Va.) were seeded in 96 well black, clear-flat bottom dishes at 5000 cells per well, and placed in at 37° C., 5% CO2 incubator. The following day, the cells were washed once with RPMI 1640 supplemented with 10% FBS and 1% Penicillin/Streptomyocin (complete culture media). The cells were then incubated for 18 hours with complete culture media containing different concentrations of recombinant human Interferon Gamma (IFNgamma) (carrier free) (Cat No: 570202, BioLegend, San Diego, Calif.) ranging from 0 ng/mL to 3.75 μg/mL.
After 18 hours, the media containing different concentrations of interferon gamma was replaced with complete culture media containing 1× CellTox Green (Cat No: G8731, Promega, Madison, Wis.). […] The CellTox Green fluorescence signal was measured at 24.5 hours after light treatment using a fluorescence plate reader. The cells were then lysed with detergent, incubated at 37° C. for 30 minutes, and the CellTox Green fluorescence signal was measured again post lysis. The percent dead cells was calculated by taking the ratio between background (1× CellTox Green in complete culture media without cells) subtracted CellTox Green signal per well prior to and post lysis and multiplying the ratio by 100.

In assay [2] the test system is PD-L1. Kind of assay: Effect of interferon gamma on PD-L1 expression, flow cytometry. The format is cell-based. Conditions: 375 pg/mL, 37.5 ng/mL, 18 hours; BxPC3 cells. As to the method:
BxPC3 cells were seeded in 12 well dishes at 145,000 cells per well, and placed at 37° C. in a 5% CO2 incubator. The following day, the cells were washed once with RPMI 1640 supplemented with 10% FBS and 1% Penicillin/Streptomyocin (complete culture media). The cells were then incubated for 18 hours with complete culture media alone, complete culture media containing 375 pg/mL of recombinant human Interferon Gamma (carrier free) (Cat No: 570202, BioLegend, San Diego, Calif.), or complete culture media containing 37.5 ng/mL recombinant human Interferon Gamma (carrier free). After the 18 hour incubation with or without recombinant interferon gamma, the BxPC3 cells were washed one time with complete culture media. […]
After the one hour incubation, the cells were washed three times with phosphate buffer saline (pH 7) and incubated with enzyme free cell dissociation buffer (Catalog No: S-014-C, EMD Millipore, Billerica, Mass.) until cells were detached. After the cells detached, phosphate buffer saline containing 0.5% bovine serum albumin fraction V (Catalog No: 15260-037, ThermoFisher Scientific, Waltham, Mass.) was added to the cells, and the samples were immediately analyzed by flow cytometry for PD-L1 expression based on the fluorescent signal from the IR700 dye of the anti-PD-L1-IRDye 700DX. […]

B1: IFNgamma: recombinant human Interferon Gamma (carrier free) (protein, UniProt P01579 24-161, looked up)
Interferon gamma: QDPYVKEAENLKKYFNAGHSDVADNGTLFLGILKNWKEESDRKIMQSQIVSFYFKLFKNFKDDQSIQKSVETIKEDMNVKFFNSNKKKRDDFEKLTNYSVTDLNVQRKAIHELIQVMAELSPAAKTGKRKRSQMLFRG
With B1, the cell death result in assay [1] is “dose-dependent increase in cell death”. Further, the PD-L1 expression entry in assay [2] is recorded as “dose-dependent increase in PD-L1 expression”.
